Test results from patent US20210380679A1 (INHIBRX BIOSCIENCES, published 2021).
Where a chain is given by its changes, count along the chain named.

T1: human DLL3 (Delta-like ligand 3) (human, UniProt Q9NYJ7 27-618)
T1 construct: endogenous on SHP-77 cells; also called cell-surface DLL3
T1 sequence: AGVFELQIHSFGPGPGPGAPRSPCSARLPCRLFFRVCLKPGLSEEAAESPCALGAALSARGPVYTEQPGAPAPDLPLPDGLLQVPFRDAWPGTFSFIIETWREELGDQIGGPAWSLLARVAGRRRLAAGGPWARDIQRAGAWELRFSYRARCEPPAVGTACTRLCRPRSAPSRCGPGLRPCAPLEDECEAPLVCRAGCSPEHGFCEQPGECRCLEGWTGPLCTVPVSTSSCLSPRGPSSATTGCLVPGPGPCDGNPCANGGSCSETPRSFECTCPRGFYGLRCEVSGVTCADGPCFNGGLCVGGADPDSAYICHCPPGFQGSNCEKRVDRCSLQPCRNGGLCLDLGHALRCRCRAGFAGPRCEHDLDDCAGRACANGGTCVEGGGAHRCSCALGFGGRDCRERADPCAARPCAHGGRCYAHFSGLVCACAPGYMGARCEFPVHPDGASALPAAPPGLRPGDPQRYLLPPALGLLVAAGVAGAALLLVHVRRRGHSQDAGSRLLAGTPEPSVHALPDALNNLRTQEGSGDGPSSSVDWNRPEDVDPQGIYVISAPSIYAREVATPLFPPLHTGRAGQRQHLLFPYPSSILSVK

B1: L6C5 (Fc fusion)
VHH: QVQLQESGGGLVQTGGSLTLSCGASEITFSDKTVGWYRQAPGKQRVLVAVISNVDSTNYAHSVKGRFTISRDNAKNTVYLQMNSLKPEDTAVYYCHARDFENEYWGRGTQVTVKP
notes: tested as VHH-human Fc; Fc not specified
B2: hz6C5v1 (Fc fusion)
VHH: EVQLVESGGGEVQPGGSLRLSCAASEITFSDKTVGWYRQAPGKQRVLVAVISNVDSTNYAESVKGRFTISRDNAKNTLYLQMSSLRAEDTAVYYCHARDFENEYWGQGTLVTVKP
notes: as for B1
B3: hz6C5v5 (Fc fusion)
VHH: B2 VHH with D55E, L78V
notes: as for B1
B4: hz6C5v2 (Fc fusion)
VHH: B2 VHH with L78V
notes: as for B1
B5: hz6C5v3 (Fc fusion)
VHH: B2 VHH with E61H, L78V
notes: as for B1
B6: hz8E7v4 (Fc fusion)
VHH: B2 VHH with T28I, F29T, T33S, Y37W, V46N, V50G, D55G, E61Q, Y79F, H96Y
notes: as for B1
B7: hz8E7v1 (Fc fusion)
VHH: B2 VHH with T28I, F29T, T33S, Y37W, V46N, V50G, D55G, H96Y
notes: as for B1
B8: hz6C5v4 (Fc fusion)
VHH: B2 VHH with A23G, L78V
notes: as for B1
B9: hz6F1v1 (Fc fusion)
VHH: B2 VHH with T28I, H96Y, N102S
notes: as for B1
B10: hz6F1v5 (Fc fusion)
VHH: B2 VHH with T28I, L78V, H96Y, N102S, Q107R, L110Q
notes: as for B1
B11: hz8E7v3 (Fc fusion)
VHH: EVQLVESGGGEVQPGGSLRLSCGPSEIITSDKSVGWWRQAPGKQRNLVAGISNVGSTNYAQSVKGRFTISRDNAKNTLYLQMSSLRAEDTAVYYCYARDFENEYWGQGTLVTVKP
notes: as for B1
B12: hz6F1v7 (Fc fusion)
VHH: B2 VHH with T28I, S56A, L78V, H96Y, N102S
notes: as for B1
B13: hz6F1v3 (Fc fusion)
VHH: B2 VHH with T28I, E61Q, L78V, H96Y, N102S
notes: as for B1
B14: hz8E7v2 (Fc fusion)
VHH: B11 VHH with G23A, P24A
notes: as for B1
B15: hz6F1v2 (Fc fusion)
VHH: B2 VHH with T28I, L78V, H96Y, N102S
notes: as for B1
B16: hz6F1v4 (Fc fusion)
VHH: B2 VHH with A23G, T28I, L78V, H96Y, N102S
notes: as for B1
B17: hz6F1v6 (Fc fusion)
VHH: B2 VHH with T28I, D55E, L78V, H96Y, N102S
notes: as for B1
B18: hz5A7v4 (Fc fusion)
VHH: EVQLVESGGGEVQPGGSLRLSCAASGSDFSINAIGWYRQAPGKQRDLVAGFTGDGVTTYAESVKGRFTISRDNAKNTVYLQMSSLRAEDTAVYYCAADVKIGGDYEWFWGQGTLVTVKP
notes: as for B1
B19: hz5A7v6 (Fc fusion)
VHH: B18 VHH with A40P, L47M
notes: as for B1
B20: hz5A7v5 (Fc fusion)
VHH: B18 VHH with L47W
notes: as for B1
B21: hz5A8v2 (Fc fusion)
VHH: EVQLVESGGGEVQPGGSLRLSCAASGSIFSINAMGWYRQAPGKQRELVAVVSSDGRTTVAPSVKGRFTISRDNAKNTVYLQMSSLRAEDTAVYYCGVREWYSDSDWRDYEGQGTLVTVKP
notes: as for B1
B22: hz5A8v4 (Fc fusion)
VHH: B21 VHH with Y79S
notes: as for B1
B23: hz5A8v6 (Fc fusion)
VHH: B21 VHH with D54E
notes: as for B1
B24: hz5A8v9 (Fc fusion)
VHH: B21 VHH with D103E
notes: as for B1
B25: hz5A8v3 (Fc fusion)
VHH: B21 VHH with A40V, P41L
notes: as for B1
B26: hz5A8v8 (Fc fusion)
VHH: B21 VHH with S104A
notes: as for B1
B27: hz5A8v7 (Fc fusion)
VHH: B21 VHH with G55A
notes: as for B1
B28: hz5A8v1 (Fc fusion)
VHH: B21 VHH with P61E
notes: as for B1
B29: hz10E5v1 (Fc fusion)
VHH: EVQLVESGGGEVQPGGSLRLSCAASGFTLDDYTIGWFRQAPGKEREGVSCISSSGGSTYYAESVKGRFTISRDNAKNTLYLQMSSLRAEDTAVYYCATYCPVVVGPELGYDYWGQGTLVTVKP
notes: as for B1
B30: hz10E5v5 (Fc fusion)
VHH: B29 VHH with A40F
notes: as for B1
B31: hz10E5v2 (Fc fusion)
VHH: B29 VHH with L79V, Y80W
notes: as for B1
B32: hz10E5v3 (Fc fusion)
VHH: B29 VHH with S84N, S85D
notes: as for B1
B33: hz10E5v4 (Fc fusion)
VHH: B29 VHH with R87K, A88S, V93I
notes: as for B1
B34: L10E5 (Fc fusion)
VHH: EVQLVQSGGGLVQPGGSLRLSCAASGFTLDDYTIGWFRQFPGKEREGVSCISSSGGSTYYADSVKGRFTISRDNAKNTVWLQMNDLKSEDTAIYYCATYCPVVVGPELGYDYWGQGTQVTVKP
notes: as for B1
B35: hz10D9v8 (Fc fusion)
VHH: EVQLVESGGGEVQPGGSLRLSCAASGFTFSINAMGWYRQAPGKQRELVAGFTGDTNTIYAESVKGRFTISRDNAKNTVYLQMSSLRAEDTAVYYCAADVQLFSRDYEFYWGQGTLVTVKP
notes: as for B1
B36: hz10D9v9 (Fc fusion)
VHH: B35 VHH with I31S, N32Y
notes: as for B1
B37: 3C5 (Fc fusion)
VHH: QVQLVQSGGGLVQAGGSLRLSCAASGSIFSINAMGWYRQPPGKQRELVAGFTGDGSTKYADSVKGRFTISRDNAKNTVYLQMNSLKPEDTAVYYCAADVQLLNSDYEFYWGQGTQVTVKP
notes: as for B1

Experiments:
[1] = target: T1, human DLL3 (Delta-like ligand 3); assay: flow cytometry, sdAb-Fc titrated on SHP-77 cells (DLL3 positive), APC anti-human Fc secondary
Experimental: FIGS. 2A-L set forth a series of graphs depicting the ability of sdAb and humanized variants thereof targeting DLL3 to bind cell surface DLL3.
Specificity and relative affinity were assessed for purified sdAb-Fcs on DLL3-expressing cells. […] A titration series of the fusion protein was incubated with the DLL3-expressing cell lines (approximately 2.5×10⁴ to 5×10⁴ cells/well) for 30 minutes at 4 degrees Celsius in FACS Buffer (PBS 1% BSA, 0.1% NaN₃ pH 7.4) in 96-well plates. Following three wash steps in FACS buffer, an APC-conjugated anti-human Fcγ specific secondary antibody (Jackson ImmunoResearch) was added and incubated for 30 minutes at 4 degrees Celsius. Following three additional wash steps in FACS buffer bound antibody was detected via flow cytometry (IQue Intellicyte).

[2] = target: T1, human DLL3 (Delta-like ligand 3); assay: flow cytometry, SHP-77 cells

Row | Binder | binding result [1] | also measured
1 | B1 | binds | 
2 | B2 |  | EC50 (read off the curve) [1]: ~2 nM
3 | B3 | binds | 
4 | B4 | binds | 
5 | B5 | binds | 
6 | B6 | binds | 
7 | B7 | binds | 
8 | B8 | binds | 
9 | B9 |  | EC50 (read off the curve) [1]: ~0.5 nM
10 | B10 | binds | 
11 | B11 | binds | 
12 | B12 | binds | 
13 | B13 | binds | 
14 | B14 | binds | 
15 | B15 | binds | 
16 | B16 | binds | 
17 | B17 | binds | 
18 | B18 | binds | 
19 | B19 | binds | 

Row | Binder | binding result [1] | also measured
20 | B20 | binds | 
21 | B21 | binds | 
22 | B22 | binds | 
23 | B23 | binds | 
24 | B24 | binds | 
25 | B25 | binds | 
26 | B26 | binds | 
27 | B27 | binds | 
28 | B28 |  | EC50 (read off the curve) [1]: ~2 nM
29 | B29 |  | EC50 (read off the curve) [1]: ~5 nM
30 | B30 |  | EC50 (read off the curve) [1]: ~7 nM
31 | B31 |  | EC50 (read off the curve) [1]: ~7 nM
32 | B32 |  | EC50 (read off the curve) [1]: ~7 nM
33 | B33 |  | EC50 (read off the curve) [1]: ~10 nM
34 | B34 |  | EC50 (read off the curve) [1]: ~3 nM
35 | B35 |  | binding result [2]: binds
36 | B36 |  | binding result [2]: binds
37 | B37 | binds | 
